This note sets out measurements from article PMC5591277, “Usb1 controls U6 snRNP assembly through evolutionarily divergent cyclic phosphodiesterase activities”.

The target of data set [1] is T1, Lsm2-8 complex (Saccharomyces cerevisiae, UniProt P38203;P57743;P40070;P40089;Q06406;P53905;P47093 …).
T1 sequence 1: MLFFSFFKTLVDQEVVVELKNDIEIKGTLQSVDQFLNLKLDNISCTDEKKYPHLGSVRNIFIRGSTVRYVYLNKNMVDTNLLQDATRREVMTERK
T1 sequence 2: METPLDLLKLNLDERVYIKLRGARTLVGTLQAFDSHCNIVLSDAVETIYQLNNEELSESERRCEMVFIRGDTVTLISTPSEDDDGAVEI
T1 sequence 3: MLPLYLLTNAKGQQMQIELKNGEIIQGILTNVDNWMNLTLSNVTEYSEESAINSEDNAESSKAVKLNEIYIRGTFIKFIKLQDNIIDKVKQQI
T1 sequence 4: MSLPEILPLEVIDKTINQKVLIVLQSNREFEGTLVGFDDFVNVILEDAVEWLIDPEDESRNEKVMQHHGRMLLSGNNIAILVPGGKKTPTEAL
T1 sequence 5: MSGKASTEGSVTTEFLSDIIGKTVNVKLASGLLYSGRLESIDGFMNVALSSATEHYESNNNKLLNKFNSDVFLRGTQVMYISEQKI
T1 sequence 6: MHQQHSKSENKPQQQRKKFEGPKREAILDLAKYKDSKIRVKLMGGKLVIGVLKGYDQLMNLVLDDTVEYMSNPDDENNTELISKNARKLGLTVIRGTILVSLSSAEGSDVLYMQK
T1 sequence 7: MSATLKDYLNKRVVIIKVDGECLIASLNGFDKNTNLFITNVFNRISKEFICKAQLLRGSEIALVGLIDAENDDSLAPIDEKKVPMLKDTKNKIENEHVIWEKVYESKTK
Description: fluorescence polarization; Hill 1.3; EMSA: 5 nM Cy3-U6, 100 mM KCl, 20% sucrose, 20 mM bis-tris/10 mM HCl, 1 mM EDTA, 1 mM TCEP, 0.01% Triton X-100, 0.1 mg/mL tRNA, 0.01 mg/mL heparin, 0.1 mg/mL BSA, room temp 20 min (gel 4 C); FP: 0.25-1 nM FAM-RNA, 100 mM NaCl, 20 mM bis-tris/10 mM HCl, 1 mM TCEP, 5% glycerol, 1 mM EDTA, yeast tRNA, BSA. To be noted: protein: recombinant; tags: His on Lsm8 and GST on Lsm6, removed by TEV; copies: 1;1;1;1;1;1;1; label: 5' 6-FAM.

Data set [2] addresses T1, Lsm2-8 complex. The experiment in a line: fluorescence polarization; Hill 1.0; EMSA: 5 nM Cy3-U6, 100 mM KCl, 20% sucrose, 20 mM bis-tris/10 mM HCl, 1 mM EDTA, 1 mM TCEP, 0.01% Triton X-100, 0.1 mg/mL tRNA, 0.01 mg/mL heparin, 0.1 mg/mL BSA, room temp 20 min (gel 4 C); FP: 0.25-1 nM FAM-RNA, 100 mM NaCl, 20 mM bis-tris/10 mM HCl, 1 mM TCEP, 5% glycerol, 1 mM EDTA, yeast tRNA, BSA. To be noted: protein: recombinant; tags: His on Lsm8 and GST on Lsm6, removed by TEV; copies: 1;1;1;1;1;1;1; label: 5' 6-FAM.

Data set [3] addresses T1, Lsm2-8 complex. The experiment in a line: fluorescence polarization; Hill 1.6; EMSA: 5 nM Cy3-U6, 100 mM KCl, 20% sucrose, 20 mM bis-tris/10 mM HCl, 1 mM EDTA, 1 mM TCEP, 0.01% Triton X-100, 0.1 mg/mL tRNA, 0.01 mg/mL heparin, 0.1 mg/mL BSA, room temp 20 min (gel 4 C); FP: 0.25-1 nM FAM-RNA, 100 mM NaCl, 20 mM bis-tris/10 mM HCl, 1 mM TCEP, 5% glycerol, 1 mM EDTA, yeast tRNA, BSA. To be noted: protein: recombinant; tags: His on Lsm8 and GST on Lsm6, removed by TEV; copies: 1;1;1;1;1;1;1; label: 5' 6-FAM.

Data set [4] has as its target T2, Lhp1 (yeast La protein) (Saccharomyces cerevisiae, UniProt P33399 1-275).
T2 sequence: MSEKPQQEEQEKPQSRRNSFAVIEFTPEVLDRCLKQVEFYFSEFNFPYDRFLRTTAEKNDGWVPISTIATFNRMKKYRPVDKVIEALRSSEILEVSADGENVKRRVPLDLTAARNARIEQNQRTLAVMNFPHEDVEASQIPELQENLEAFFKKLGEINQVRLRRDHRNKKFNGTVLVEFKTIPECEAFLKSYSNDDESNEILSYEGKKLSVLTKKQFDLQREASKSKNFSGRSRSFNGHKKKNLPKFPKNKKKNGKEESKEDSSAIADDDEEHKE
Description: fluorescence polarization; Hill 1.27; EMSA: 5 nM Cy3-U6, 100 mM KCl, 20% sucrose, 20 mM bis-tris/10 mM HCl, 1 mM EDTA, 1 mM TCEP, 0.01% Triton X-100, 0.1 mg/mL tRNA, 0.01 mg/mL heparin, 0.1 mg/mL BSA, room temp 20 min (gel 4 C); FP: 0.25-1 nM FAM-RNA, 100 mM NaCl, 20 mM bis-tris/10 mM HCl, 1 mM TCEP, 5% glycerol, 1 mM EDTA, yeast tRNA, BSA. Particulars: protein: recombinant; tags: N-terminal His8-TEV; label: 5' 6-FAM.

Data set [5] deals with T2, Lhp1 (yeast La protein). Description: fluorescence polarization; Hill 1.11; EMSA: 5 nM Cy3-U6, 100 mM KCl, 20% sucrose, 20 mM bis-tris/10 mM HCl, 1 mM EDTA, 1 mM TCEP, 0.01% Triton X-100, 0.1 mg/mL tRNA, 0.01 mg/mL heparin, 0.1 mg/mL BSA, room temp 20 min (gel 4 C); FP: 0.25-1 nM FAM-RNA, 100 mM NaCl, 20 mM bis-tris/10 mM HCl, 1 mM TCEP, 5% glycerol, 1 mM EDTA, yeast tRNA, BSA. To be noted: protein: recombinant; tags: N-terminal His8-TEV; label: 5' 6-FAM.

Turning to AGAGAUUUAUUUCGUUUU (ssRNA, 3' phosphate) [U6 95-112 3'P], the Kd in the data set with Lsm2-8 complex [1] worked out at 10 ± 1 nM.

Consider AGAGAUUUAUUUCGUUUUU (ssRNA, 3' phosphate) [U6 95-112+1U 3'P], for which the Kd with Lsm2-8 complex [2] was determined as 3 ± 1 nM.

Turning to AGAGAUUUAUUUCGUUUU (ssRNA, 2',3'-cis-diol end) [U6 95-112 3'OH], the dissociation constant Kd with Lsm2-8 complex [3] was 85 ± 1 nM; in the data set with Lhp1 (yeast La protein) [4], 43 ± 1 nM. With AGAGAUUUAUUUCGUUUUU (ssRNA, 2',3'-cis-diol end) [U6 95-112+1U 3'OH], the equilibrium dissociation constant (Kd) with Lhp1 (yeast La protein) [5] amounted to 29 ± 1 nM; in the data set with Lsm2-8 complex [2], 17 ± 1 nM.
